The values that follow come from patent US20250051443A1 (NATIONAL RESEARCH COUNCIL OF CANADA, published 2025).

The target in one test is T1, Cynomolgus CD3 (Cynomolgus, UniProt Q95LI5 22-198; Q95LI7 23-181; Q95LI8 22-171).
T1 construct: whole, on cells; also called CD3 on Cynomolgus PBMCs; CD3 on HSC-F Cynomolgus T cell line
The test is described as follows: apparent KD (KDapp), flow cytometry titration on cynomolgus HSC-F T cell line. The method, then: To characterize potential cross-reactivity of the anti-human CD3 mAbs to NHP T cells, dose response flow cytometry titration studies were performed on both freshly obtained Cynomolgus PBMCs (Comparative Medicine and Animal Resources Centre—McGill University) or the Cynomolgus derived T cell line, HSC-F (Non-Human Primate Reagent Resource—NIH). Binding studies on fresh Cynomolgus PBMCs was performed on a subset of anti-CD3 mAbs (FIG. 4) whereas the Herpesvirus saimiri immortalized Cynomolgus T cell line HSC-F was employed for further evaluations (FIGS. 5A to 5C). KDapp values were calculated using a non-linear regression model of one-site binding with Hill slope (GraphPad Prism) and tabulated (Table 3b). Similar KDapp values for anti-CD3 mAb 1E2 obtained from binding to fresh Cynomolgus PBMCs (KDapp=0.28 nM) or the HSC-F T cell line (KDapp=0.39 nM) indicated the HSC-F cell line was a suitable surrogate for ex vivo NHP T cells.
HSC-F T cells obtained from the Non-Human Primate Reagent Resource (NIH) were maintained in culture in RPMI media containing 20% FBS and 40 IU/mL recombinant human IL2. 100K HSC-F cells in logarithmic cell growth were treated with graded doses of the anti-CD3 mAbs starting at 100 nM in staining buffer (SB; PBS/1% BSA/0.01% NaN3) for 2 hours at 4° C. in 96 w V-bottom plates. Following plate washing with SB, the cell pellets were resuspended with 25 μL of goat (Fab′)₂ anti-mouse IgG (H+L)− APC secondary antibody (final 5 μg/mL), incubated for 30 minutes at 4° C., followed by flow cytometry analysis. The commercial NHP cross-reactive SP34.2 anti-CD3 mAb (BD Biosciences), recombinant anti-human OKT-3 IgG2b (in house produced) and non-specific mIgG were employed as controls. 20K live events were acquired on a BD LSRFortessa flow analyzer and mean fluorescence intensities (MFI) calculated after subtraction of secondary antibody alone values. Using GraphPad Prism software, the data were analyzed using a one site specific binding with Hill slope non-linear regression model to calculate KDapp and BMax values (See Table 2).

Test [1] deals with T2, human CD3 (human, UniProt P07766 23-207; P09693 23-182; P04234 22-171). The test is described as follows: flow competition on Jurkat, 100 nM unlabeled mAb; competitor AF488-SK7 1.5 nM. The protocol:
(§1) In order to evaluate whether anti-CD3 monoclonal antibodies bind to the same epitope region, flow cytometry competition experiments on Jurkat cells were performed.
(§2) To that effect, a fixed concentration of the indicated AF488-labeled mAb were incubated with 100 nM of unlabeled monoclonal antibodies to assess if their binding capacity was impaired in presence of unlabeled mAbs. […] The AF488-OKT3 mIgG2b was labeled in-house using AlexaFluor488 protein labelling kit (Invitrogen #A10235) following manufacturer's instruction. The free dye removal step was done using Zeba™ Spin Desalting Columns, 7K MWCO (Thermo Scientific #89890). The final product was analyzed by UPLC-SEC to ensure the integrity of the labeled mAb.

Test [2] addresses T2, human CD3. The test can be described thus: apparent KD (KDapp), flow cytometry titration of the AF488-labeled mAb on Jurkat cells.
Test [3] has as its target T2, human CD3. The test is described as follows: flow competition on Jurkat, 100 nM unlabeled mAb; competitor AF488-SP34.2 20 nM (self).
Test [4] concerns the target T2, human CD3. The test can be described thus: flow competition on Jurkat, 100 nM unlabeled mAb; competitor AF488-UCHT1 5 nM. The method, then: as §1, §2
Test [5] deals with T2, human CD3. The test can be described thus: apparent KD (KDapp), flow cytometry titration on purified primary human T cells. The method, then: The binding characteristics of the purified anti-CD3 mAbs were assessed in titration studies on purified human primary T cells from different donor samples. Fresh ex vivo peripheral blood mononuclear cells (PBMCs) were obtained via density centrifugation over Ficoll-Paque using standard procedures and untouched T cell fractions obtained from PBMCs by negative pan-T cell selection and magnetic cell sorting. Starting from 300 nM concentrations of the anti-CD3 mAbs, eight point binding curves were generated from the resultant mean fluorescence intensity (MFI) values obtained through detection of labelled secondary antibody to bound CD3 in flow cytometry experiments (FIGS. 3A and 3B). Both commercial mouse anti-human CD3 mAb (OKT-3; Biolegend) and an in house generated IgG1 version of OKT-3 were employed as positive controls together with a non-specific mouse IgG serving as a negative binding control. Following curve fit analysis using one-site specific binding with Hill slope, the KDapp (concentration needed to achieve a half-maximum binding at equilibrium) for each mAb was calculated (Table 2).
Eight point binding titrations were performed with the anti-CD3 mAbs starting at either 300 or 100 nM on freshly purified human T cells obtained through negative selection from PBMC fractions. Briefly, 1×10⁵ human T cells (50 μL of staining buffer (SB; PBS/1% BSA/0.01% NaN3) were incubated with graded dilutions of the anti-CD3 mAbs in SB ([…]) for 2 hours at 4° C. in 96 w U-bottom plates, followed by plate washing with SB ([…]). Cell pellets were resuspended with 25 μL of a 0.25 mg/mL solution of the goat (Fab′)₂ anti-mouse IgG (H+L)− APC secondary antibody in SB, incubated at 4° C. (30 min.), washed 1× with SB, and resuspended for flow analysis. Recombinant anti-human OKT-3 IgG2b (in house produced) and non-specific mIgG were employed similarly as positive and negative controls respectively. 10K live events were acquired on a BD LSRFortessa flow analyzer and mean fluorescence intensities (MFI) calculated after subtraction of secondary antibody alone values. Using GraphPad Prism software, the data were analyzed using a one site specific binding with Hill slope non-linear regression model to calculate KDapp and BMax values (See Table 2).

For SP34.2 (antibody), the Kd was found to be 1.29 nM with Cynomolgus CD3, 10.8 nM with human CD3 [2] and 1.77 nM with human CD3 [5]. Further, the values for the % residual fluorescence of labeled mAb in the test with human CD3 [1], with human CD3 [3] and with human CD3 [4] were 29%, 10% and 49%, respectively.
